# Assay results: publication PMC5864733 (Nature Communications, 2018)
# B1: CsrA (residues 1-61), GST tag removed (natural protein)
# chain: not shown
# notes: also called WT CsrA; native CsrA
# Biological target: T1, CesT (residues 1-156), 6xHis-tagged, wild type (enteropathogenic E. coli (EPEC) O127:H6 …, UniProt P21244 1-156)
# T1 construct: source: E. coli BL21(DE3), purified (Ni-NTA, gel filtration); not shown: His6, N-terminal, kept
# Experiment: SPR
# Conditions: both partners purified
# T1 sequence (P21244 whole entry, the tested form may be a part): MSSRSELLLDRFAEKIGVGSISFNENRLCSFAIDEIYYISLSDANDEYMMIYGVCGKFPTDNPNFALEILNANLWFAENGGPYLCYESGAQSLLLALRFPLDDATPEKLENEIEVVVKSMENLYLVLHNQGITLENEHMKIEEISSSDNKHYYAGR
binder,measurement,value
B1,KD of the first ligand binding site in CsrA (Bivalent-Analyte model),~148 nM
